According to paper PMC2927601, “Molecular basis for defect in Alix-binding by alternatively spliced isoform of ALG-2 (ALG-2^ΔGF122) and structural roles of F122 in target recognition” (BMC Structural Biology, 2010):

B1: synthetic peptide of the ALG-2-binding site in Alix with N-terminal linker (peptide)
peptide: KGGSGGSQGPPYPTYPGYPGYSQ
notes: linker, printed in lower case; also called Alix ABS peptide; ABS oligopeptide; source: synthetic peptide (Biosynthesis Inc., USA)

Assays:
[1] = molecular target: B1; assay: SPR; Biacore2000, 25°C; Alix ABS peptide immobilized on CM5 chip; ALG-2 proteins 100 nM in HBS-P (10 mM HEPES-NaOH pH 7.4, 150 mM NaCl, 0.005% P20) with 100 μM CaCl2, 20 μl/min, injected 180 s; resonance signal at 10 s before dissociation phase relative to WT; conditions: both partners purified
[2] = molecular target: T1, ALG-2 (apoptosis-linked gene 2), wild type, full-length recombinant (human, UniProt O75340 1-191); assay: as above; conditions: both partners purified
T1 construct: ALG-2, human, 22-kDa protein of 191 amino acid residues; longer (major) isoform regarded as wild type; also called WT; wild-type ALG-2

Row | relative binding capacity (% of WT resonance signal) [1] [%] | binding result [2] | Binder
1 | 240 | – | ALG-2^F122A, full-length recombinant (natural protein, human, UniProt O75340 1-191, looked up, ALG-2, human, 191 residues, Phe122 substituted with Ala; PDB 2ZN8 is the wild-type full-length parent) MAAYSYRPGPGAGPGPAAGAALPDQSFLWNVFQRVDKDRSGVISDTELQQALSNGTWTPFNPVTVRSIISMFDRENKAGVNFSEFTGVWKYITDWQNVFRTYDRDNSGMIDKNELKQALSGAGYRLSDQFHDILIRKFDRQGRGQIAFDDFIQGCIVLQRLTDIFRRYDTDQDGWIQVSYEQYLSMVFSIV
2 | 36 | – | ALG-2^F122W, full-length recombinant (natural protein, human, UniProt O75340 1-191, looked up, ALG-2, human, 191 residues, Phe122 substituted with Trp; PDB 2ZN8 is the wild-type full-length parent) MAAYSYRPGPGAGPGPAAGAALPDQSFLWNVFQRVDKDRSGVISDTELQQALSNGTWTPFNPVTVRSIISMFDRENKAGVNFSEFTGVWKYITDWQNVFRTYDRDNSGMIDKNELKQALSGWGYRLSDQFHDILIRKFDRQGRGQIAFDDFIQGCIVLQRLTDIFRRYDTDQDGWIQVSYEQYLSMVFSIV
3 | 89 | – | ALG-2^F122S, full-length recombinant (natural protein, human, UniProt O75340 1-191, looked up, ALG-2, human, 191 residues, Phe122 substituted with Ser; PDB 2ZN8 is the wild-type full-length parent) MAAYSYRPGPGAGPGPAAGAALPDQSFLWNVFQRVDKDRSGVISDTELQQALSNGTWTPFNPVTVRSIISMFDRENKAGVNFSEFTGVWKYITDWQNVFRTYDRDNSGMIDKNELKQALSGSGYRLSDQFHDILIRKFDRQGRGQIAFDDFIQGCIVLQRLTDIFRRYDTDQDGWIQVSYEQYLSMVFSIV
4 | 140 | – | ALG-2^F122G, full-length recombinant (natural protein, human, UniProt O75340 1-191, looked up, ALG-2, human, 191 residues, Phe122 substituted with Gly; PDB 2ZN8 is the wild-type full-length parent) MAAYSYRPGPGAGPGPAAGAALPDQSFLWNVFQRVDKDRSGVISDTELQQALSNGTWTPFNPVTVRSIISMFDRENKAGVNFSEFTGVWKYITDWQNVFRTYDRDNSGMIDKNELKQALSGGGYRLSDQFHDILIRKFDRQGRGQIAFDDFIQGCIVLQRLTDIFRRYDTDQDGWIQVSYEQYLSMVFSIV
5 | – | binds | B1
